Measurements taken from paper PMC4332860.

Target: Human coagulation factor X (human)
Assay: SPR; human FX amine-coupled to a CMD500m chip; vector particles 1.25x10^8 to 1x10^9 physical particles per millilitre passed for 3 min at 25 μl/min; 10 mM HEPES pH 7.4, 150 mM NaCl, 5 mM CaCl2, 0.005% Tween 20; reference flow cell subtracted

“AdGFPhCKS17, ΔE1/E3 Ad5 vector particles with CKS17 peptide in place of hexon HVR5 (from UniProt P04133 1-952; P11818 1-581) (complex)” was tested, and the percent reduction of binding against AdGFPhWt was 30%.
